In publication PMC12416549 (2024):
Numbering of substitutions follows the chain as printed. In names and notes the source's numbering stands.

B1: A9F (designed binder)
chain: SMEEEVEKFAKEYEKKKKEAIEKHLEKLKAKDKEAAERFLKELEEAAKEYAKDEAKTMSEEEAKRRAKKYKEKVLLSELSEEEQKEIKEAEEKLVRTILKYVEEAAK
B2: Y13I (designed binder)
chain: B1 chain with F9A, Y13I
B3: I87Y (designed binder)
chain: B1 chain with F9A, I87Y
B4: M58H (designed binder)
chain: B1 chain with F9A, M58H
B5: E37I (designed binder)
chain: B1 chain with F9A, E37I
B6: A67T (designed binder)
chain: B1 chain with F9A, A67T
B7: E49A (designed binder)
chain: B1 chain with F9A, E49A
B8: L40I (designed binder)
chain: B1 chain with F9A, L40I
B9: K18D (designed binder)
chain: B1 chain with F9A, K18D
B10: A106M (designed binder)
chain: B1 chain with F9A, A106M
B11: A67V (designed binder)
chain: B1 chain with F9A, A67V
B12: E54F (designed binder)
chain: B1 chain with F9A, E54F
B13: K48Q (designed binder)
chain: B1 chain with F9A, K48Q
B14: R96Y (designed binder)
chain: B1 chain with F9A, R96Y
B15: K17V (designed binder)
chain: B1 chain with F9A, K17V
B16: V74P (designed binder)
chain: B1 chain with F9A, V74P
B17: K64P (designed binder)
chain: B1 chain with F9A, K64P
B18: E3F (designed binder)
chain: B1 chain with E3F, F9A
B19: K64E (designed binder)
chain: B1 chain with F9A, K64E
B20: A36L (designed binder)
chain: B1 chain with F9A, A36L
B21: E34Q (designed binder)
chain: B1 chain with F9A, E34Q
B22: E78G (designed binder)
chain: B1 chain with F9A, E78G
B23: K68D (designed binder)
chain: B1 chain with F9A, K68D
B24: F39E (designed binder)
chain: B1 chain with F9A, F39E
B25: M2H (designed binder)
chain: B1 chain with M2H, F9A
B26: A55C (designed binder)
chain: B1 chain with F9A, A55C
B27: L99M (designed binder)
chain: B1 chain with F9A, L99M
B28: E45I (designed binder)
chain: B1 chain with F9A, E45I
B29: A36E (designed binder)
chain: B1 chain with F9A, A36E
B30: E92K (designed binder)
chain: B1 chain with F9A, E92K
B31: E104D (designed binder)
chain: B1 chain with F9A, E104D
B32: L79H (designed binder)
chain: B1 chain with F9A, L79H
B33: L75E (designed binder)
chain: B1 chain with F9A, L75E
B34: L43C (designed binder)
chain: B1 chain with F9A, L43C
B35: E42W (designed binder)
chain: B1 chain with F9A, E42W
B36: E91G (designed binder)
chain: B1 chain with F9A, E91G
B37: K16F (designed binder)
chain: B1 chain with F9A, K16F
B38: K56L (designed binder)
chain: B1 chain with F9A, K56L
B39: E78A (designed binder)
chain: B1 chain with F9A, E78A
B40: V102T (designed binder)
chain: B1 chain with F9A, V102T
B41: Q84D (designed binder)
chain: B1 chain with F9A, Q84D
B42: A55K (designed binder)
chain: B1 chain with F9A, A55K
B43: A106N (designed binder)
chain: B1 chain with F9A, A106N
B44: K11G (designed binder)
chain: B1 chain with F9A, K11G
B45: R96Q (designed binder)
chain: B1 chain with F9A, R96Q
B46: E44F (designed binder)
chain: B1 chain with F9A, E44F
B47: E4Y (designed binder)
chain: B1 chain with E4Y, F9A
B48: K17Y (designed binder)
chain: B1 chain with F9A, K17Y
B49: D32L (designed binder)
chain: B1 chain with F9A, D32L
B50: E26D (designed binder)
chain: B1 chain with F9A, E26D
B51: K27E (designed binder)
chain: B1 chain with F9A, K27E
B52: V102A (designed binder)
chain: B1 chain with F9A, V102A
B53: E86G (designed binder)
chain: B1 chain with F9A, E86G
B54: A30C (designed binder)
chain: B1 chain with F9A, A30C
B55: A20C (designed binder)
chain: B1 chain with F9A, A20C
B56: T97P (designed binder)
chain: B1 chain with F9A, T97P
B57: I21E (designed binder)
chain: B1 chain with F9A, I21E
B58: T57D (designed binder)
chain: B1 chain with F9A, T57D
B59: R66W (designed binder)
chain: B1 chain with F9A, R66W

Biological target: T1, TNFR1 (Homo sapiens, UniProt P19438)
T1 chain: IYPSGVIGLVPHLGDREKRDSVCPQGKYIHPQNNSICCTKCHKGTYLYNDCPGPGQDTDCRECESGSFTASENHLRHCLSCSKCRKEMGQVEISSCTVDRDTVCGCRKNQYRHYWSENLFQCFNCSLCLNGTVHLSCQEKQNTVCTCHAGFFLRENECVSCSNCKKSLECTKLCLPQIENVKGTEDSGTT
Assay: yeast display SC50

Row | Binder | apparent Kd (screen)
1 | B1 | 0.718 nM
2 | B2 | 11.4 nM
3 | B3 | 12.5 nM
4 | B4 | 7.78 nM
5 | B5 | 0.956 nM
6 | B6 | 20.2 nM
7 | B7 | 2.73 nM
8 | B8 | 0.79 nM
9 | B9 | 0.956 nM
10 | B10 | 3.99 nM
11 | B11 | 7.78 nM
12 | B12 | 0.405 nM
13 | B13 | 0.446 nM
14 | B14 | 3.99 nM
15 | B15 | 0.539 nM
16 | B16 | 0.446 nM
17 | B17 | 2.73 nM
18 | B18 | 20.2 nM
19 | B19 | 0.593 nM
20 | B20 | 1.05 nM

Row | Binder | apparent Kd (screen)
21 | B21 | 0.446 nM
22 | B22 | 3 nM
23 | B23 | 1.27 nM
24 | B24 | 4.83 nM
25 | B25 | 0.49 nM
26 | B26 | 11.4 nM
27 | B27 | 3 nM
28 | B28 | 2.73 nM
29 | B29 | 0.446 nM
30 | B30 | 12.5 nM
31 | B31 | 0.956 nM
32 | B32 | 13.8 nM
33 | B33 | 2.73 nM
34 | B34 | 0.49 nM
35 | B35 | 0.49 nM
36 | B36 | 9.41 nM
37 | B37 | 0.446 nM
38 | B38 | 1.05 nM
39 | B39 | 2.48 nM
40 | B40 | 0.446 nM

Row | Binder | apparent Kd (screen)
41 | B41 | 3.63 nM
42 | B42 | 6.43 nM
43 | B43 | 1.05 nM
44 | B44 | 0.446 nM
45 | B45 | 1.4 nM
46 | B46 | 1.69 nM
47 | B47 | 1.16 nM
48 | B48 | 0.446 nM
49 | B49 | 2.73 nM
50 | B50 | 0.446 nM
51 | B51 | 0.956 nM
52 | B52 | 0.49 nM
53 | B53 | 1.16 nM
54 | B54 | 0.869 nM
55 | B55 | 0.718 nM
56 | B56 | 7.07 nM
57 | B57 | 0.539 nM
58 | B58 | 13.8 nM
59 | B59 | 8.56 nM
